Tested on: Escherichia coli TOP10
Assay: shrunken log2 fold change of peptide-encoding DNA abundance (4.5 h post-induction vs induction); higher = less antimicrobial activity (less host growth inhibition)
Conditions: time post-induction: 4.5 h; library: site-saturation at positions 5, 18, 19, 20
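Further: peptides expressed intracellularly from a pBAD plasmid library in pooled LB shake-flask culture, induced with 0.3% L-arabinose, DNA abundance read by NGS, three biological replicates, DESeq2 with apeglm shrinkage.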

Row | Sequence | shrunken log2 fold change
1 | RRIRQRPPRLPRPRPRPNLCPRP | -0.00174
2 | RRIRQRPPRLPRPRPRPNLFPRP | -0.0199
3 | RRIRQRPPRLPRPRPRPNMCPRP | -0.195
4 | RRIRQRPPRLPRPRPRPNMFPRP | 0.0369
5 | RRIRQRPPRLPRPRPRPNNFPRP | -0.17
6 | RRIRQRPPRLPRPRPRPNNWPRP | -0.0942
7 | RRIRQRPPRLPRPRPRPNQFPRP | 0.0334
8 | RRIRQRPPRLPRPRPRPNRDPRP | -0.178
9 | RRIRQRPPRLPRPRPRPNRKPRP | -0.141
10 | RRIRQRPPRLPRPRPRPNSAPRP | -0.173
11 | RRIRQRPPRLPRPRPRPNSHPRP | -0.191
12 | RRIRQRPPRLPRPRPRPNWDPRP | 0.126
13 | RRIRQRPPRLPRPRPRPNYEPRP | -0.123
14 | RRIRQRPPRLPRPRPRPNYLPRP | -0.134
15 | RRIRQRPPRLPRPRPRPNYQPRP | -0.491
16 | RRIRQRPPRLPRPRPRPPAIPRP | -0.0632
17 | RRIRQRPPRLPRPRPRPPCCPRP | 0.0763
18 | RRIRQRPPRLPRPRPRPPCHPRP | 0.0591
19 | RRIRQRPPRLPRPRPRPPDEPRP | 0.0836
20 | RRIRQRPPRLPRPRPRPPDPPRP | 0.151
21 | RRIRQRPPRLPRPRPRPPECPRP | -0.0742
22 | RRIRQRPPRLPRPRPRPPENPRP | 0.0912
23 | RRIRQRPPRLPRPRPRPPGIPRP | -0.0579
24 | RRIRQRPPRLPRPRPRPPGPPRP | 0.255
25 | RRIRQRPPRLPRPRPRPPHMPRP | 0.287

Row | Sequence | shrunken log2 fold change
26 | RRIRQRPPRLPRPRPRPPIGPRP | 2.89
27 | RRIRQRPPRLPRPRPRPPKDPRP | 0.0238
28 | RRIRQRPPRLPRPRPRPPKQPRP | -0.0279
29 | RRIRQRPPRLPRPRPRPPKVPRP | 2.65e-05
30 | RRIRQRPPRLPRPRPRPPMKPRP | 0.00136
31 | RRIRQRPPRLPRPRPRPPMMPRP | 0.154
32 | RRIRQRPPRLPRPRPRPPMQPRP | -0.055
33 | RRIRQRPPRLPRPRPRPPMTPRP | -0.268
34 | RRIRQRPPRLPRPRPRPPPCPRP | 0.393
35 | RRIRQRPPRLPRPRPRPPPVPRP | 0.607
36 | RRIRQRPPRLPRPRPRPPRMPRP | 0.442
37 | RRIRQRPPRLPRPRPRPPRNPRP | 0.765
38 | RRIRQRPPRLPRPRPRPPSMPRP | -0.234
39 | RRIRQRPPRLPRPRPRPPVWPRP | 0.223
40 | RRIRQRPPRLPRPRPRPPYKPRP | -0.166
41 | RRIRQRPPRLPRPRPRPPYSPRP | -0.224
42 | RRIRQRPPRLPRPRPRPQCLPRP | -0.122
43 | RRIRQRPPRLPRPRPRPQCRPRP | 0.0527
44 | RRIRQRPPRLPRPRPRPQDEPRP | 0.104
45 | RRIRQRPPRLPRPRPRPQDTPRP | -0.555
46 | RRIRQRPPRLPRPRPRPQGKPRP | -0.0747
47 | RRIRQRPPRLPRPRPRPQGTPRP | 0.193
48 | RRIRQRPPRLPRPRPRPQHCPRP | -0.076
49 | RRIRQRPPRLPRPRPRPQHLPRP | -0.0402
50 | RRIRQRPPRLPRPRPRPQKCPRP | -0.00409

Row | Sequence | shrunken log2 fold change
51 | RRIRQRPPRLPRPRPRPQKDPRP | -0.29
52 | RRIRQRPPRLPRPRPRPQKLPRP | -0.0725
53 | RRIRQRPPRLPRPRPRPQKSPRP | 0.0118
54 | RRIRQRPPRLPRPRPRPQMMPRP | -0.082
55 | RRIRQRPPRLPRPRPRPQPHPRP | 0.158
56 | RRIRQRPPRLPRPRPRPQQIPRP | -0.0822
57 | RRIRQRPPRLPRPRPRPQQWPRP | 0.201
58 | RRIRQRPPRLPRPRPRPQRFPRP | -0.0204
59 | RRIRQRPPRLPRPRPRPQRSPRP | 0.0623
60 | RRIRQRPPRLPRPRPRPQRTPRP | 0.0128
61 | RRIRQRPPRLPRPRPRPQSCPRP | 0.00408
62 | RRIRQRPPRLPRPRPRPQSYPRP | 0.015
63 | RRIRQRPPRLPRPRPRPQTKPRP | -0.133
64 | RRIRQRPPRLPRPRPRPQTNPRP | -0.736
65 | RRIRQRPPRLPRPRPRPQTSPRP | 0.219
66 | RRIRQRPPRLPRPRPRPQTTPRP | -0.0245
67 | RRIRQRPPRLPRPRPRPQVEPRP | -0.0173
68 | RRIRQRPPRLPRPRPRPQVIPRP | -0.0697
69 | RRIRQRPPRLPRPRPRPRAGPRP | 0.389
70 | RRIRQRPPRLPRPRPRPRAIPRP | 0.109
71 | RRIRQRPPRLPRPRPRPRCEPRP | -0.128
72 | RRIRQRPPRLPRPRPRPRCTPRP | -0.172
73 | RRIRQRPPRLPRPRPRPRDSPRP | 0.0142
74 | RRIRQRPPRLPRPRPRPREEPRP | -0.00407
75 | RRIRQRPPRLPRPRPRPRFAPRP | 0.141

Row | Sequence | shrunken log2 fold change
76 | RRIRQRPPRLPRPRPRPRFYPRP | -0.206
77 | RRIRQRPPRLPRPRPRPRGFPRP | 0.0677
78 | RRIRQRPPRLPRPRPRPRHAPRP | -0.0685
79 | RRIRQRPPRLPRPRPRPRHQPRP | -0.00749
80 | RRIRQRPPRLPRPRPRPRIFPRP | -0.131
81 | RRIRQRPPRLPRPRPRPRKKPRP | -0.0181
82 | RRIRQRPPRLPRPRPRPRMYPRP | -0.2
83 | RRIRQRPPRLPRPRPRPRNFPRP | -0.0725
84 | RRIRQRPPRLPRPRPRPRNQPRP | -0.329
85 | RRIRQRPPRLPRPRPRPRPAPRP | 0.185
86 | RRIRQRPPRLPRPRPRPRPLPRP | 0.382
87 | RRIRQRPPRLPRPRPRPRQDPRP | 0.243
88 | RRIRQRPPRLPRPRPRPRREPRP | 0.08
89 | RRIRQRPPRLPRPRPRPRRHPRP | -0.0734
90 | RRIRQRPPRLPRPRPRPRSCPRP | 0.268
91 | RRIRQRPPRLPRPRPRPRTLPRP | 0.0409
92 | RRIRQRPPRLPRPRPRPRTMPRP | -0.232
93 | RRIRQRPPRLPRPRPRPRVEPRP | -0.0308
94 | RRIRQRPPRLPRPRPRPRWPPRP | 0.616
95 | RRIRQRPPRLPRPRPRPRYMPRP | -0.0938
96 | RRIRQRPPRLPRPRPRPSAAPRP | 0.486
97 | RRIRQRPPRLPRPRPRPSCPPRP | -0.037
98 | RRIRQRPPRLPRPRPRPSDTPRP | -0.0683
99 | RRIRQRPPRLPRPRPRPSENPRP | -0.0264
100 | RRIRQRPPRLPRPRPRPSESPRP | -0.0923

Row | Sequence | shrunken log2 fold change
101 | RRIRQRPPRLPRPRPRPSFVPRP | -0.161
102 | RRIRQRPPRLPRPRPRPSGCPRP | 0.0869
103 | RRIRQRPPRLPRPRPRPSIKPRP | -0.425
104 | RRIRQRPPRLPRPRPRPSIYPRP | -0.988
105 | RRIRQRPPRLPRPRPRPSKVPRP | -0.133
106 | RRIRQRPPRLPRPRPRPSMEPRP | 0.0775
107 | RRIRQRPPRLPRPRPRPSMHPRP | -0.0647
108 | RRIRQRPPRLPRPRPRPSNQPRP | -0.359
109 | RRIRQRPPRLPRPRPRPSNSPRP | -0.294
110 | RRIRQRPPRLPRPRPRPSNTPRP | -0.824
111 | RRIRQRPPRLPRPRPRPSSWPRP | -0.0176
112 | RRIRQRPPRLPRPRPRPSTQPRP | -0.481
113 | RRIRQRPPRLPRPRPRPSVRPRP | -0.309
114 | RRIRQRPPRLPRPRPRPSWGPRP | -0.0627
115 | RRIRQRPPRLPRPRPRPSWYPRP | -0.0733
116 | RRIRQRPPRLPRPRPRPSYSPRP | -0.298
117 | RRIRQRPPRLPRPRPRPTAIPRP | -0.248
118 | RRIRQRPPRLPRPRPRPTAWPRP | 0.591
119 | RRIRQRPPRLPRPRPRPTCEPRP | 0.0552
120 | RRIRQRPPRLPRPRPRPTEYPRP | -0.401
121 | RRIRQRPPRLPRPRPRPTFGPRP | 0.343
122 | RRIRQRPPRLPRPRPRPTFSPRP | -0.0427
123 | RRIRQRPPRLPRPRPRPTHDPRP | 0.911
124 | RRIRQRPPRLPRPRPRPTHNPRP | 0.357
125 | RRIRQRPPRLPRPRPRPTHPPRP | 0.374

Row | Sequence | shrunken log2 fold change
126 | RRIRQRPPRLPRPRPRPTIDPRP | -0.0223
127 | RRIRQRPPRLPRPRPRPTIPPRP | -0.205
128 | RRIRQRPPRLPRPRPRPTMVPRP | -0.148
129 | RRIRQRPPRLPRPRPRPTNSPRP | -0.225
130 | RRIRQRPPRLPRPRPRPTPSPRP | 0.507
131 | RRIRQRPPRLPRPRPRPTQAPRP | 0.186
132 | RRIRQRPPRLPRPRPRPTRYPRP | 0.511
133 | RRIRQRPPRLPRPRPRPTSPPRP | 0.218
134 | RRIRQRPPRLPRPRPRPTVSPRP | -0.14
135 | RRIRQRPPRLPRPRPRPTWQPRP | 0.186
136 | RRIRQRPPRLPRPRPRPTYQPRP | -0.109
137 | RRIRQRPPRLPRPRPRPTYYPRP | -0.524
138 | RRIRQRPPRLPRPRPRPVADPRP | 0.0976
139 | RRIRQRPPRLPRPRPRPVCIPRP | -0.39
140 | RRIRQRPPRLPRPRPRPVEDPRP | -0.0933
141 | RRIRQRPPRLPRPRPRPVEEPRP | -0.0284
142 | RRIRQRPPRLPRPRPRPVEPPRP | 0.117
143 | RRIRQRPPRLPRPRPRPVFMPRP | -0.155
144 | RRIRQRPPRLPRPRPRPVFQPRP | 0.0308
145 | RRIRQRPPRLPRPRPRPVFVPRP | -0.0727
146 | RRIRQRPPRLPRPRPRPVGQPRP | 0.0327
147 | RRIRQRPPRLPRPRPRPVGSPRP | 0.317
148 | RRIRQRPPRLPRPRPRPVHLPRP | 0.00299
149 | RRIRQRPPRLPRPRPRPVICPRP | -0.0945
150 | RRIRQRPPRLPRPRPRPVKMPRP | -0.211

Source: the supplement of paper PMC9112550, “Optimization of the antimicrobial peptide Bac7 by deep mutational scanning” (BMC Biology, 2022)
